The values below come from publication PMC11643329, “DNA sequence-induced solid phase transition as a solution to the genome folding paradox” (Research Square, 2024).

First the molecules themselves.
B2: truncated Sumo-Lhx2 (Lhx2 1-350, lacks the C-terminal intrinsically disordered region) (domain or fragment, UniProt Q9Z0S2 1-350, looked up)
chain: MLFHSLSGPEVHGVIDEMDRRAKSEAPAISSAIDRGDTETTMPSISSDRAALCAGCGGKISDRYYLLAVDKQWHMRCLKCCECKLNLESELTCFSKDGSIYCKEDYYRRFSVQRCARCHLGISASEMVMRARDLVYHLNCFTCTTCNKMLTTGDHFGMKDSLVYCRLHFEALLQGEYPAHFNHADVAAAAAAAAAAKSAGLGSAGANPLGLPYYNGVGTVQKGRPRKRKSPGPGADLAAYNAALSCNENDAEHLDRDQPYPSSQKTKRMRTSFKHHQLRTMKSYFAINHNPDAKDLKQLAQKTGLTKRVLQVWFQNARAKFRRNLLRQENTGVDKTSDATLQTGTPSGPA
notes: Lhx2, LIM-homeodomain transcription factor, residues 1-350 followed by a stop codon; Construct order as printed: 6xHis - Sumo - strep II - Lhx2 in pET28b; also called truncated Lhx2; source: E. coli BL21, purified (HisTrap, HiTrap Heparin, dialysis); not shown: Sumo, N-terminal, kept

Assay [1] concerns the target B2. Briefly: native gel or EMSA; purified proteins mixed with 2000 fmol ATTO-488 labelled composite motif DNA probe; Ldb1 added to DNA-bound Lhx2 and/or Ebf1; 10 mM HEPES, 150 mM NaCl, 5% glycerol, 0.5% NP-40, 1 mg/mL BSA, 0.1 mg/mL poly dI-dC; 30 minutes at 4C; 6% native gel. The conditions noted are these: both partners purified.
Assay [2] concerns the target T1, full length Halo-Ldb1 (Ldb1 1-411) (UniProt P70662 1-411, Halo-tag ligand Coumarin dye on the Halo tag (incubated at 1:10 molar equivalent)).
T1 construct: Construct order as printed: 6x His - Halo tag - Ldb1 1-411 - stop codon in pET-duet; The EMSA legend says only 'full-length Ldb1'; This is the only full-length Ldb1 construct that the methods describe; also called full length Ldb1; FL Halo-Ldb1; source: E. coli BL21, purified (HisTrap, dialysis); not shown: Halo tag, N-terminal, kept
T1 sequence (looked up): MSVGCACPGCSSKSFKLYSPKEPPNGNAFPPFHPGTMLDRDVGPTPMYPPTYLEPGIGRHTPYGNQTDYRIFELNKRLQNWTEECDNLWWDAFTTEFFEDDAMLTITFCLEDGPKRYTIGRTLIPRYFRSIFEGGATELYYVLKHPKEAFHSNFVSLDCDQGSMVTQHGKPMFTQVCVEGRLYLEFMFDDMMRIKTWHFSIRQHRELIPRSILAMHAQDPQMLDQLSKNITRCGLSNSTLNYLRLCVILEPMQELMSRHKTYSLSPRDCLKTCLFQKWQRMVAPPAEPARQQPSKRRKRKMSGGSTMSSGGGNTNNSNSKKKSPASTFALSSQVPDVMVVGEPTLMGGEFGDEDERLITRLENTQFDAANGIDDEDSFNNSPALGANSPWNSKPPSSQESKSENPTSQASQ
The assay is described as above. To be noted: both partners purified.

B1: Ldb1 Lim interaction domain (Ldb1-LID), Sumo-Ldb1 320-375 (domain or fragment, UniProt P70662 320-375, looked up)
chain: KKKSPASTFALSSQVPDVMVVGEPTLMGGEFGDEDERLITRLENTQFDAANGIDDE
notes: Construct order as printed: 6x His - Sumo - Ldb1 320-375 - stop codon in pET28; also called truncated Ldb1 protein; Sumo-Ldb1-LID domain; source: E. coli BL21, purified (HisTrap, Superdex 75 size exclusion); not shown: Sumo, N-terminal, kept
For B1, the binding result in assay [1] was “binds”. As for B2, the binding result in assay [2] is recorded as “binds”.
